The series has as its target DED1 (R2R3-MYB), GST fusion (Zea mays, UniProt A0A804M0V9 1-450). Put plainly: EMSA; 5 mM Mg2+; EMSA: 50 ng DED1-GST, 6 ng probe in 20 uL 10 mM Tris pH 7.5, 50 mM KCl, 1 mM DTT, 2.5% glycerol, 5 mM MgCl2, 50 ug/uL (so in the source) poly(dI-dC), 0.05% NP-40, 25. The following applies: protein: recombinant; tags: GST (N-terminal, pGEX-4T-1); label: biotin 3' end on one strand; blunt. On the technique in general: A gel shift assay detects complexes by their altered migration in electrophoresis.

Chain of DED1 (R2R3-MYB), GST fusion (A0A804M0V9 entry or part of it): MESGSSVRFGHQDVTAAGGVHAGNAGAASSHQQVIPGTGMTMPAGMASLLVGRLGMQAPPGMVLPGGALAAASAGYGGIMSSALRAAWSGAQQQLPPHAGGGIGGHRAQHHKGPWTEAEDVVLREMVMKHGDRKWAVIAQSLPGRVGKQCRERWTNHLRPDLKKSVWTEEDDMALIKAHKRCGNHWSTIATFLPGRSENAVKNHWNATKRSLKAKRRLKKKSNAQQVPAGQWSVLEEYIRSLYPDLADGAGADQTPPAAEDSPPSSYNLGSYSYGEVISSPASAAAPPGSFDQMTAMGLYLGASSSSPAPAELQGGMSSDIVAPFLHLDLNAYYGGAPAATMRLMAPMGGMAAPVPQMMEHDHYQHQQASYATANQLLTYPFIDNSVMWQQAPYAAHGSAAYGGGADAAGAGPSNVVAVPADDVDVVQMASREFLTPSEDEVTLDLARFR

B1: sus1 promoter probe (dsDNA)
DNA 1: CTGAACCGTTTTTCGGTTTCAGTTTTCTCTGCTGACTGAAGCTTC
DNA 2: GAAGCTTCAGTCAGCAGAGAAAACTGAAACCGAAAAACGGTTCAG
As for B1, the binding result is “binds”.

B2: c1 promoter probe (dsDNA)
DNA 1: CATCATTCGATCAGTTTTCGTTCTGATGCAGTTTTCGATAAATGC
DNA 2: GCATTTATCGAAAACTGCATCAGAACGAAAACTGATCGAATGATG
In the case of B2, the binding result is listed as “binds”.

B3: vp1 promoter probe (dsDNA)
DNA 1: GTCCTTGAAACTGCAATCCAAATCTACGCAACCGTTTTGCATGCCACTGTTTGTA
DNA 2: TACAAACAGTGGCATGCAAAACGGTTGCGTAGATTTGGATTGCAGTTTCAAGGAC
Regarding B3, the binding result is given as “binds”.

B4: fl3 promoter probe (dsDNA)
DNA 1: TGTACAAATATTTCTACTGACAGTTTTTAAGAAACCACCTGTGGA
DNA 2: TCCACAGGTGGTTTCTTAAAAACTGTCAGTAGAAATATTTGTACA
Regarding B4, the binding result is on record as “binds”.

Values taken from PMC9470594, “Paternal imprinting of dosage-effect defective1 contributes to seed weight xenia in maize”.
